Experimental findings from US20120053225A1 (H LEE MOFFITT CANCER CENTER AND RESEARCH INSTITUTE, published 2012) are described below.

Test [1] concerns the target T1, HA-tagged AKT Y176F mutant (UniProt P31749 1-480).
T1 construct: also called Y176F mutant of AKT; HA-Y176F; not shown: HA tag
The test can be described thus: pull-down of purified proteins on GST-Ack1 glutathione beads, immunoblot. In general terms: A western blot detects proteins with antibodies after separation by electrophoresis.

Test [2] concerns the target T2, endogenous Ack1 of mouse embryo fibroblasts (mouse, UniProt O54967 1-1055, limits assumed).
T2 construct: Endogenous protein immunoprecipitated from MEF lysates with anti-Ack1 antibodies; also called TNK2
Description: co-IP with Ack1 antibodies from EGF-treated MEF lysates, immunoblot with pan-AKT antibodies.
Description: Membrane and cytosolic fractionation was performed using membrane fractionation kit (BioVision, Inc, CA). The nuclear/cytoplasmic fractionation was performed using protocol from Abcam (Abcam, Inc., Cambridge, Mass.). For immunoprecipitations, cells were lysed in receptor lysis buffer (RLB) containing 25 mmol/L Tris (pH 7.5), 500 mmol/L NaCl, 1% Triton X-100, 10% glycerol, phosphatase inhibitors (10 mmol/L NaF, 1 mmol/L Na₂VO₄), and protease inhibitor mix (Hoffmann-La Roche Inc., Switzerland). […] The kinase assay was performed using kit from Calbiochem.

T2 sequence (O54967 whole entry): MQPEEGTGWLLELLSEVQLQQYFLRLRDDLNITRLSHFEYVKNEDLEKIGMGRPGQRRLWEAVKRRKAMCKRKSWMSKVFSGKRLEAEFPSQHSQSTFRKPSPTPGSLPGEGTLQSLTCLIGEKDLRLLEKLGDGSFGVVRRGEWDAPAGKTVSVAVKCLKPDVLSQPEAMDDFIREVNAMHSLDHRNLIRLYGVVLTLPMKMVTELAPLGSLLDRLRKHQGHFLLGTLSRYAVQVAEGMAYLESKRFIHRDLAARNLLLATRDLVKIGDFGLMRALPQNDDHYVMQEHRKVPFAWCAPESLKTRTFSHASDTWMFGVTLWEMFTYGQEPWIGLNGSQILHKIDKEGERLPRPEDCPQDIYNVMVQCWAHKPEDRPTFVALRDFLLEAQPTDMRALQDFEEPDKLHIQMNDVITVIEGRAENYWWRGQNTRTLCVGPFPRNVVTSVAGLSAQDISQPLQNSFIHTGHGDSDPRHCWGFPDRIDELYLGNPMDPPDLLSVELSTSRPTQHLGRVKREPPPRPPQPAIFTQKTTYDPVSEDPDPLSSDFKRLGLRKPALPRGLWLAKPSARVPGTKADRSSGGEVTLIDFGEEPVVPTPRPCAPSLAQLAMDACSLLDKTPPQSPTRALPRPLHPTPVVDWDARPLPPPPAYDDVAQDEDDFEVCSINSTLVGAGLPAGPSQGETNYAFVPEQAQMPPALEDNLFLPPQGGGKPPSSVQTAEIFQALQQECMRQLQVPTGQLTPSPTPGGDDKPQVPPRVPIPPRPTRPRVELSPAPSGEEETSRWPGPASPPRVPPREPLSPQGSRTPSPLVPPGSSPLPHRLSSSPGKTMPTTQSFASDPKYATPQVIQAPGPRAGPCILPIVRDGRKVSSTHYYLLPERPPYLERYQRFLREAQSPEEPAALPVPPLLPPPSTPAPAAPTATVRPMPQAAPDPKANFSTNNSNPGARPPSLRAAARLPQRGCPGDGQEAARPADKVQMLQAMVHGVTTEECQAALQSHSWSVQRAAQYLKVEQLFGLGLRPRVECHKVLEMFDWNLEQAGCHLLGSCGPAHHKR

B1: GST-Ack1 (kinase, SH3 and CRIB domain), expressed in E. coli (enzyme, UniProt Q07912 110-476, looked up)
chain: GEGPLQSLTCLIGEKDLRLLEKLGDGSFGVVRRGEWDAPSGKTVSVAVKCLKPDVLSQPEAMDDFIREVNAMHSLDHRNLIRLYGVVLTPPMKMVTELAPLGSLLDRLRKHQGHFLLGTLSRYAVQVAEGMGYLESKRFIHRDLAARNLLLATRDLVKIGDFGLMRALPQNDDHYVMQEHRKVPFAWCAPESLKTRTFSHASDTWMFGVTLWEMFTYGQEPWIGLNGSQILHKIDKEGERLPRPEDCPQDIYNVMVQCWAHKPEDRPTFVALRDFLLEAQPTDMRALQDFEEPDKLHIQMNDVITVIEGRAENYWWRGQNTRTLCVGPFPRNVVTSVAGLSAQDISQPLQNSFIHTGHGDSDPRHCW
notes: domain: kinase, SH3 and CRIB domain; also called GST-tagged Ack1; not shown: GST tag
In the case of B1, the binding result in test [1] is on record as “no binding”.

B2: endogenous Akt1 of mouse embryo fibroblasts (enzyme, UniProt P31750 1-480, looked up)
chain: MNDVAIVKEGWLHKRGEYIKTWRPRYFLLKNDGTFIGYKERPQDVDQRESPLNNFSVAQCQLMKTERPRPNTFIIRCLQWTTVIERTFHVETPEEREEWATAIQTVADGLKRQEEETMDFRSGSPSDNSGAEEMEVSLAKPKHRVTMNEFEYLKLLGKGTFGKVILVKEKATGRYYAMKILKKEVIVAKDEVAHTLTENRVLQNSRHPFLTALKYSFQTHDRLCFVMEYANGGELFFHLSRERVFSEDRARFYGAEIVSALDYLHSEKNVVYRDLKLENLMLDKDGHIKITDFGLCKEGIKDGATMKTFCGTPEYLAPEVLEDNDYGRAVDWWGLGVVMYEMMCGRLPFYNQDHEKLFELILMEEIRFPRTLGPEAKSLLSGLLKKDPTQRLGGGSEDAKEIMQHRFFANIVWQDVYEKKLSPPFKPQVTSETDTRYFDEEFTAQMITITPPDQDDSMECVDSERRPHFPQFSYSASGTA
notes: Endogenous protein in MEF lysates
Turning to B2, in test [2], the binding result is listed as “binds”.
